The record followed here is publication PMC4677475 (Journal of biomolecular screening, 2011).

Experiment [1] addresses T1, His-tagged human GTP cyclohydrolase 1 (human, UniProt P30793 1-250).
T1 sequence (looked up): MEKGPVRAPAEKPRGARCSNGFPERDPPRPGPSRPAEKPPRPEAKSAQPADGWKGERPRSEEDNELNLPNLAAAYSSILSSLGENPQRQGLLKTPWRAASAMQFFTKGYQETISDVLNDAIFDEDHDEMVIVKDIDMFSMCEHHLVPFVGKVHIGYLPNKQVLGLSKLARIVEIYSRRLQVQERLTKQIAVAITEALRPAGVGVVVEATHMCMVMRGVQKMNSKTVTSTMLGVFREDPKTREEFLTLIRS
The experiment can be described thus: FRET or BRET. On the technique in general: BRET reads energy transfer from a luciferase to a nearby fluorophore.

Experiment [2] deals with T1, His-tagged human GTP cyclohydrolase 1. Briefly: FRET or BRET. This is another data set of the same source.

Read-outs that look alike come from different tables or passages of the source.

B1: glutathione S-transferase (GST)-tagged human GTP cyclohydrolase feedback regulatory protein (natural protein)
chain: not shown
As for B1, the Kd (as a rule, the constant that tells how readily two partners part at equilibrium) in experiment [1] is 52.1 nM; in experiment [2] it was 15.9 nM.
